The values below come from a protein production outcome set (Wang et al. 2014).
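Further: failed if final PepcDB status was selected cloned or expressed and not failed if soluble or beyond.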

A short description of the series: label from the status in PepcDB records.
In the case of “MSGAVPETPYHQRWLAFPDAVSSYRPLESRLAGTSRATADNRTPCTGRLGTPRVFLMATDDVSKAYSSPTFDAEALLGTVISAEDPDRVLIEPWATGVDGVILDVGSGTGRWTGHLASLGHQIEGLEPATRLVELARQTHPSVTFHHGTITDLSDSPKRWAGLLAWYSLIHMGPGELPDALVALRMAVEDGGGLLMSFFSGPSLEPMYHPVATAYRWPLPELAQALETAGFQVTSSHWDPRFPHAYLTAEASKQNLALEHHHHHH”, the protein production entry is on record as “failed”.
Turning to “MSGDVQPRKRKDKRRKRDDDESSHGVHITKMGNEDLHLHVHHDHGTGGHWCAKIIFFALMAVLLGLVGLIIMENRGLEDLDTPLSESRFSKVFDGWVDEHRDEHDGHDVQEPSGEALDDHDEHDDHDDHEDEDEEPLTEELEEELEEEEEPTEEDEPAADEEYEEDEDEENNAGENITAEDAEEEEEEEDNDDEGTVEATVEATTEATTEATGEYEAEEDDEDEAAADDDAVESTEAPLSKAEEQEDDEDEDEEEQEIEESVEPERSQYAAQSAPAKDNNDDDDDDDQDKNDADDGDDDEFESLAQQFENDPEDTVPAKAVESEEQDQDQADEEEPKEEGSSWLASQIKPKEAAPAPAEKEDPFEQELRKANEEMIRENYAQALRSFNTLTTNFAHEPSAHLGRARLLELLAKKERSNQRLWEAIDAYKRYLAFGELVASNQEFQTAGESCIENLRFLGHHRQATTIHELLINRLPEDPRLRNQLSLTYLMVNNLQQVEKVAVETLKLWPNNAVAQLHYGLALRQFHADYAKALPYLKYAVESGEEGTQEAFFYLSLGETMQRLSMKSEALEVYGKGVAKGFFASLYQRSLYNEPRLRAQPFWQPKETGYERQLEKLTLNWRAIRDEGLALLGRSGFFEDEAELLRDKGVWQQYELYAQGRRVKDNCRRAPITCSLLEEFPESAGCRRGQVKFSVMQAKTHVWPHCGPTNCRLRAHLTLAAPEPEKASLRVAEQERTWREGELFIFDDSFEHEVWHNGSQSRLVLILDMWHPQLSAAQRRSLSPI”, the protein production result was “failed”.
The value for “MSGEDEQQEQTIAEDLVVTKYKMGGDIANRVLRSLVEASSSGVSVLSLCEKGDAMIMEETGKIFKKEKEMKKGIAFPTSISVNNCVCHFSPLKSDQDYILKEGDLVKIDLGVHVDGFIANVAHTFVVDVAQGTQVTGRKADVIKAAHLCAEAALRLVKPGNQNTQVTEAWNKVAHSFNCTPIEGMLSHQLKQHVIDGEKTIIQNPTDQQKKDHEKAEFEVHEVYAVDVLVSSGEGKAKDAGQRTTIYKRDPSKQYGLKMKTSRAFFSEVERRFDAMPFTLRAFEDEKKARMGVVECAKHELLQPFNVLYEKEGEFVAQFKFTVLLMPNGPMRITSGPFEPDLYKSEMEVQDAELKALLQSSASRKTQKKKKKKASKTAENATSGETLEENEAGD” was “failed”; that for “MSGEPDGERVIAGRYRLLSPLGEGGMGTVWRARDEVLRREVAVKEVRAPAGLSQPDVGRMYARLEREAWAAARISHPNVVTVYDVATDGGRPWIVMELVRGLSLADLLDAEGPLEPRRAALIGAEVLAALRAAHAAGVLHRDVKPANVLLANDGRVVLTDFGIARVEGSEALTMTGEVVGSPEFLAPERALGRTPGAASDLWSLGVLLYATVEGVSPFRQGTPLSTLRAIVDEAVPPPRRAGALGPVVEGLLRKDPAERLPAEEAERALRLVGAGGAPPGRGPRTGAPPSGAFAPTVVAAHPGPPTAPTPPMPVPAAGDTSAAGAPGAPGGRDRRARAVLLVGLAVLVLALAGLTYSLLDRSDGGGGTEGSGGSPGPGATSAATSGGAGEPSPPASSGTDGGQSGPAAQSVEVTVVGSRTHYSGACPPPHDRAPAFTATFTVGRLPAEVGYRWVTADGSVSDPGWRTLSFPSGGERSRQDGVVVTTHDDTGAFESAVRVEVRSPVRATSDAVAFSVTCGTGTETETGTGTPSGGASHSSSPSAPSSSPSA” was “failed”; that for “MSGITMAMRGPRLEFAVGAFLLLTLASLLVLAVASTNQRWGFGSSQYTLTARFSQIGQLRAQAPVKIGGVTIGKVSDISLDPTKFDSIVTLSLDTRYKDLPADTSAGIFTSGLLGESYIGLQPGGDPDTLKPGDEIGFTQPAVDLLQLVGKYMFSGGGSGSNANVPAATNGQAPAPARTAPPPTEPHQ” was “failed”.
Take “MSGLLPLLDFAGYVALLLWGVHMVQTGVQRAFGAALSIALGRALGTRLRAFASGLGITAALQSSTATGLMITGFAAGGVVALVPALAAMLGANVGTTLIVQLLSFDLTSLAPILILAGVWMFRRAAPGRTRDLGRVFIGLGLLLLSLHQLVQLFQPFETAPLLGVLLDALASQPVAAVLLAAALTWAAHSSVAVVVLVMSLASHGMVNPALAFALVLGANLGTAINPMIEGVTGDDPAARRLPLGNLLTRVAGVLAGIILLPWLQPWLSGLAGDPAHAVANFHTLFNVVIALVFLPILTPYAALLTRWLPKRADPNDPARPQYLDEWAHDVPAVALGNAAREALRMADMLQTLLLYARAGFKRDNRHRMVQARQLDSALDKLETAITTYLATLDQENMTREDHQRLDTILAFCSNIGHAGDIAYHGLLNHIGRLRKQGLLLSADQRASLDATLGELIANQRQAAALFVTDDLRQARALAGEKARFRALEAEAAETQLQQIKSGKVDAAEVGALYLDILRDLKGINSHVVGASAYPLLARHGELLPSRLRDAGN”: the protein production entry is reported as “failed”.
As to “MSGMAKYMEIYIDIRDKINQNKYEINEKLPDGDSMARTYDCSKLTVKKALDMLVQEGMIIRRRGAGTFVKSHSTNGGEFALGPMSGLVNTFGKDNIKSKVILFSIEKPSKEVAEKLEMQDDYIYRIIRMREVGHKAYSIEHTYMPLAIIPGLEPHHLEDSIYNYIRDDLKLKMQSAHVWVRGDKSNQEDSKLLDLEEPTFMMEIEKLAHLEDGRVFEYSITRHTYESFVFETVFVQN”, the protein production result is listed as “failed”.
“MSGNSDEATAPGADWDALAASFDDEPDHGLRDAEVRRAWAARLASWLPAPPGDVLDLGCGTGSLSLLAAEQGHRVTGVDLSPAMVELARTKLAGRDAVFLTGDAAAPPVGEQRFDAVLVRHVLWTLPDPGRALRHWRQLLRPGGRLVLVEGVWGSVSPVGIPADRVTALLGPLTGQARVERLSDDPSLWGREVADERYAVVATYG”: the protein production result is given as “failed”.
Take “MSGNVGAGRHADELAIRTVQYRWLEATRKFDRQVLSSLMTDDVVFLTPGRLPFGKEEFLAACEQNDQRVIIEASATFEEIVIVEPMAYTRTHLHIKVTPRSGGAVRELAGHAMSIFRRSMFGEWQLARDANLVVPI”: the protein production entry was “not failed”.
The same measure for “MSGSEYSEVDVNEGDSIWALADQYAAKSDMAKADFVSWVEKENNLTDGHVKAGDYVVIPVHETKLQRSDSTIQLANQLEHHHHHH”: “not failed”; for “MSGSGKTITQMKSTAILAPVIAVILILSACGKPMDAQALVAEAKQYQQQGNDKAAIIQLKNALQQSPNDPEIRYLLGTLYNREGDIQSAEKELNKALDLGMDPVKVLPGLSRAWLGMGKFQQVLDETGKLSDKGNFAELLALRGNASLALGKFEEAKVLFEQALQDKPGFSDALTGLARYSLARNDIESAMNFSEEAVKLNPENSDAVLFRGDLLRAQNKIDEALADYDKAIKLNPESEAAYINRATISISTKKFEAAQADLDAVRKIAPGSLLAAYTQALLDFSQGKHAVALETLQRILSSAPGHLPSVLLAGATQFALGSFPQAGQYVEQYLKAIPNNLYAIKLMASIQLKNNQVKQAITTLTPALKSVQQDPQLFALAGEAYMRSKDFTKASEYFEKAGELAPDNASLYTALAMSKMGQGDSKSAIADLEQAAQLDDQSGRAGVMLVLTHLQLREFDKALKAVESQLAEQPDNPLLHNLKGGIYLGKKDLAKARSSFNQALSIQSDYFPAISNLARIDMQENHPEAAQQRFEDVLKRDKKNVQAMNALAGIALARGNKEEATGWLEKASRENPDELQPALQLGAHYLAVNDPGKSLALAKKLQGIHPDNLSIVELLARSYLATGDKDAALENFQKLAARLPDSAPAQLQLAQIYSSMQNNKAAAGSLKKALTIKPDLWEAKLMQAQLAVAADRVEDAFNISHDLQKQHEKLPVGFELEGDLQMRQKNAAAAATAYEKALSRQKNSQLLIKLHTALSQSGKEKQADQRLNQWLKENPTDAVTRTYLAGVYLASKKYDPAIKEYQTILKQHPDHAATLNNLAWVYQQKKDPVALEYAEKAYKQAPDSPAILDTLGWILIEKGDAERGTSLLQKAVTAVPEAAEIRYHYAVGLFKSGNKAEARQELEKLLGGDKPFPQRDDAKKLLESL”: “failed”; for “MSGSKTSAEKKESETEKSSDIAQVKIKDVSYTLPSKYDKSTSDDQLVLKVNVAVKNTGKDPLNVDSMDFTLYQGDTKMSDTDPEDYSEKLQGSTINADKSVEGNLFFVVDKGKQYELNYTPESYGDKKPKSVTFKIDGKDKKILATADKLQDSAKALSAYVDVLLFGKDNADFEKITGANKNEIVNDFNESAKDGYLSASGLSSTYADSKALDNIVNGIKEGLSKNSSIQAKTTSISKDEAIVEATVKPVDASSLSDRIEDKVKDYYSKNSSASYEEAVKYALQVYPEEFKKLGPASSEKTVEVKMKKNDIDQWQLDMDDYRAAELVEAFIKELEHHHHHH”: “not failed”.
For the sequence “MSGSNVAPEDKRMEDRKFRANIPPQTIVFCTVYQTTIGLTNSQHQKIRLASLRLPLLFFQQRQTSAAPPKEDVMNEETLKKIQSNPKYLELVHKKTSLGWTLAIVMLVIYYGYILVLAFAPSLLGKPLYQGATMTVGIPVGVCIILSAFVLTGIYVRRANQEFDPLTQQIVEEAK”, the protein production result was “failed”.
As for “MSGTRHQIVVALGDTRYRVDRPFGTWPQTAGKVSDVVVLRDGRVLVLLRSDPYVDPDGPRVIVLSCDGDYLGAWGDLDIADAHLMTPAPDGRLFIVDRDMHEIIVFSADGQRVGGIGTRGAPGTPFNHPTDVAFAPSGDFYVSDGYAGWHVHRFAGDGTHLATWGAFGSGRGEFLEPHSLWCLPDGRVVVVDRCNNRLQVFDADGVFLDEWTGFHRAVGIWGDDAGDIFVSDQVPSLHRISQNGTRLGRARPVLNGAHGIFGSPDGTIYLAEANPSRVSRLTPL”, the protein production entry is on record as “failed”.
Consider “MSGVLLLFIIGFIGSFISGMVGIGGAIINYPMILYIPVLLGFTGYTSHEVSGITAVQVFFATFAGAWAYRKSTDMNKMLVVYMGASILIGSFIGSFSANLLDEHAVNVVYTVLATIAAMMMFVPKKNNSGAVKYNKWLASVLAFIVGGVSGIIGAGGAFLLVPIMLVILKLPLRMTIATSIAITFISSVGITTGKVITGQVVIIPALIIAVASIFAAPLGARVGKRINQKVLQYMLSILIVGTAVKMWIDMILK”, for which the protein production entry is reported as “failed”.
In the case of “MSHDHHHHHGPGAAHGAGGHSHAPQDFGRAFAIGIALNMVFVVAEAAFGYFSNSMALIADAGHNLSDVAGLVVAWIAAGLSKRPPSARYTYGLRGSSILAALFNAVFLLLAVGAIGWEAVVRLFAPEPVAGITVMVVAGIGIVINAVTAWLFASGRHSDLNIRGAYLHMAADAAVSAAVVVAGVIILSTGWYWIDPAVSLIVAVVIVWGTWGLLRDSTALSLAAVPRDIDPTAVRAFLSKLPGVTQVHDLHIWGMSTTEVALTCHLVMPGGSPGDPFLVDLAHELQHDFGIAHTTVQIETDPNTVCALAPEHVV”, the protein production entry is recorded as “failed”.
With “MSHGGGGHAAELYPEEQIFAVGIALSLVGCYLANFLSPYGLGMLIGGLLASAACVAGANTVRKVAAYGLGTGVPSIGMVSLGMGTLAAVAGVLIPDYFNLPYLVAPIITLIVSAVIGYIVGRLTVNPVGMKIPIMVRSMTFLSIAGAMALLGFTVAYVGSLEPQKYIDYALNNGMMALAFIAAGMAILHPFNACLGPNESHKRTLTLAVACGFITWFVFSVVKLDIVSIIVSIILWAIVYVKFVKMSFKDACAVLHVPEIPKKEE”, the protein production result is given as “failed”.
The same measure for “MSHRRDYGSDAVHVRITHDPPPENCFPNSGDSSVWATEDDYSRVWAINSDGAESPSKKTRSSSSSEIGKSFFKTKLCFKFRAGTCPYSASSCHFAHSAEELRLPPPPPPNWQETVTEASRNRESFAVSLGPRGNVAQTLKSPNWKTRICNKWQTTGYCPFGSHCHFAHGPSGKATAFFIY”: “failed”.
